{"source": "patent US20030027766A1", "about": "(University of Texas, published 2003)", "key": {"HLA-A2 [1]": {"target": "T1, HLA-A2 (human)", "T1 construct": "allele written as A*02:01 on that basis; also called HLA-A2.1; A2.1", "test": "immunofluorescence staining of ovarian tumor OVA-14"}, "HLA-A2 [2]": {"target": "T1, HLA-A2", "test": "immunofluorescence staining of ovarian tumor OVA-16"}, "[3]": {"target": "certain MHC Class I heavy chains other than HLA-A2", "test": "cell-based or functional assay"}, "HLA-A2 [4]": {"target": "T1, HLA-A2", "test": "HLA-A2 stabilization on T2 cells"}, "HLA-A2 [5]": {"target": "T1, HLA-A2", "test": "HLA-A2 stabilization on T2 cells, against D113"}}, "data": [{"molecule": "mAb MA2.1 (anti-HLA-A2) (antibody)", "values": [{"measurement": "% HLA-A2 positive cells", "setting": "HLA-A2 [1]", "result": 92.1, "unit": "%"}, {"measurement": "mean fluorescence", "setting": "HLA-A2 [1]", "result": 49}, {"measurement": "% HLA-A2 positive cells", "setting": "HLA-A2 [2]", "result": 85.3, "unit": "%"}, {"measurement": "mean fluorescence", "setting": "HLA-A2 [2]", "result": 42}]}, {"molecule": "RFRELVSEFSRMAR", "note": "[C43 (HER-2:968-981)]", "values": [{"measurement": "inhibition of lysis of OVA-1 tumor (HLA-A2 negative) by autologous CTL-1 after pre-pulsing with peptide", "setting": "[3]", "result": 45, "unit": "%"}]}, {"molecule": "RFRELIIEFSRMAR", "note": "[C44 (analog of HER-2:968-981, VS->II)]", "values": [{"measurement": "inhibition of lysis of OVA-1 tumor (HLA-A2 negative) by autologous CTL-1 after pre-pulsing with peptide", "setting": "[3]", "result": 25, "unit": "%"}]}, {"molecule": "ELVSEFSRV (Synthetic analog of C85)", "note": "[C84 (HER-2:971-979(Val))]", "values": [{"measurement": "binding result", "setting": "HLA-A2 [4]", "result": "binds"}]}, {"molecule": "ELVSEVSKV", "note": "[C81 (analog of HER-2:971-979, F->V, RM->KV)]", "values": [{"measurement": "binding result", "setting": "HLA-A2 [4]", "result": "binds"}]}, {"molecule": "RLLYQGCQVV (Synthetic analog)", "note": "[D114 = HER-2:47-56(48H->L)]", "values": [{"measurement": "binding result", "setting": "HLA-A2 [5]", "result": "binds"}]}, {"molecule": "GLYQGCQVV (Synthetic analog)", "note": "[D115 = HER-2:48-56(48H->G)]", "values": [{"measurement": "binding result", "setting": "HLA-A2 [5]", "result": "binds"}]}]}
